Test [1] concerns the target T1, Mouse RAGE/Fc (mouse, UniProt Q62151 24-342).
T1 construct: also called RAGE/Fc fusion; not shown: Fc part not described
The test can be described thus: ELISA, HMGB1 titrated on RAGE-Fc in the presence of 0.03 µM CpG-A (right panel). In general terms: In an ELISA, binding on a coated surface is turned into a signal by an enzyme label.

The target in test [2] is T2, recombinant HMG1 purified from E. coli as a calmodulin binding protein (CBP) fusion protein (human, UniProt A9RA84 1-215 (Papio anubis entry)).
T2 sequence: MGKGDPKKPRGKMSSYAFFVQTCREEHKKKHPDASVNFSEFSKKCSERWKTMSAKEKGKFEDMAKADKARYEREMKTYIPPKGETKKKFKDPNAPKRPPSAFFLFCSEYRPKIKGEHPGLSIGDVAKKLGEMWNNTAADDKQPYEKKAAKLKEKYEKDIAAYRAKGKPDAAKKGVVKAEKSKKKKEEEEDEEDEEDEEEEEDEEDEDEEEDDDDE
As to the kind of experiment: cell-based or functional assay.

Test [3] concerns the target T3, activated HMG1 prepared from LPS stimulated THP-1 cells (human, UniProt P09429 1-215).
T3 sequence (looked up): T2 sequence
The test can be described thus: cell-based or functional assay.

Test [4] has as its target T2, recombinant HMG1 purified from E. coli …. As to the kind of experiment: ELISA format 'Soluble HMG1/Captured Antibody' (squares): antibody captured on anti-human IgG Fc, HMG1 in solution. The procedure: Sandwich ELISA (soluble HMG1): Immunoplates (EIA/RIA plate, High binding, Costar) were coated with anti human IgG Fc at 10 μg/ml in PBS (pH 7.2) and incubated at 4° C. overnight. The coating reagent was removed and the plates were rinsed briefly with PBS. The plates were then blocked with 4% milk for 1 hour at 37° C. and rinsed with PBS. The anti-HMG1 antibodies were diluted in 4% milk. For serial dilutions, the antibodies were used at a starting concentration of 20 μg/ml. The diluted anti-HMG1 antibodies were then added into plate and incubated for 1 hr at 37° C. The plate was then washed 10 times with PBST (PBS/0.1% tween 20) and incubate with antigen (HMGB1, 2 μg/ml; or 0.7 μg/ml for native HMGB1) in 4% milk and incubated at 37° C. for 1 h. The plate was then wash 10 times and incubated with mouse anti-HMGB1, 1 μg/ml in 4% milk at 37° C. for 1 h. The plate was washed 10 times and incubated with anti-mouse IgG-HRP at 1:1000 at 37° C. for 1 h. The plate was then washed and developed. HRP activity was detected with Sureblue HRP substrate (KPL). Plates were read at 450 nm using a Kinetic Microplate Reader (Molecular Devices).

Test [5] concerns the target T4, HMG1 B Box peptide amino acids 150-183.
T4 peptide: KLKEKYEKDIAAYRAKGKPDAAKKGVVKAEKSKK
As to the kind of experiment: ELISA, wells coated with HMG1 B Box peptide 150-183 at 10 ug/ml. On the procedure:
(§1) The plate was then blocked with 4% milk powder dissolved in PBS at 37° C. for 1 hour. The blocking solution was removed and replaced with human anti-HMG1 antibodies at various concentrations (see FIGS. 5A-B). […] HRP activity was detected with Sureblue HRP substrate (KPL). Plates were read at 450 nm using a Kinetic Microplate Reader (Molecular Devices). […] After washing and blocking with 1% BSA in PBS, the biotinylated peptides were individually added into the avidin coated wells and incubated for 30 min at room temperature. The serial diluted antibody G4, S16 and S6 at the initial concentration at 10 μg/ml were then transferred into the wells followed by adding mouse anti human IgG-HRP conjugate (Pierce). Detection was accomplished by adding 50 μl of tetramethylbenzidine (TMB) substrate (KPL) and the absorbance was read at […].

The target in test [6] is T5, recombinant rat HMGB-1, Europium-labeled (rat, UniProt P63159 1-215, limits assumed, Europium label, molar ratio of HMGB-1 to Eu 1:5).
T5 construct: also called Europium-labeled HMGB-1; recombinant HMG1 (Thp-1 assay)
T5 sequence (looked up): T2 sequence with E189D, D202E
The test can be described thus: inhibition of binding of Eu-labeled HMGB-1 to THP-1 cells. The procedure:
HMG1 binding to THP-1 Cells: Recombinant rat HMGB-1 was labeled using Eu-labelling Kit from PerkinElmer. Molar ratio of HMGB-1 to Eu is 1:5. THP-1 were cultured as the protocol from ATCC. Cells were harvested and suspended at concentration 1×10⁶/ml in assay buffer containing 1×DELFIA L*R binding buffer (PerkinElmer), 50% of DELFIA stabilizer (PerkinElmer) and 0.05% of sodium azide. 100 μl of cells (1×10⁵) was added into wells in 96 well cell culture plate. The plate was incubated with gentle shaking at 4° C. for one hour. 100 μl of assay buffer containing 2 nM of Europium-labeled HMGB-1 mixed with various concentrations (333, 166.5, 83.25, 41.6, 20.8, 10.4 and 5.2 nM) of human anti-HMGB1 antibodies E11 or G2 or soluble human RAGE-Fc, were added into each wells respectively. After one hour incubation with gentle shaking at 4° C., the cells were washed four times with 1×L*R wash buffer (PerkinElmer) by centrifuging at 1200 rpm×5 min. 200 μl of enhancement solution was added into each well to dissociate and enhance Eu fluorescence at 615 nm. The fluorescence was measured with Wallac Victor Fluorometer. Assay was performed in triplicate and human antibody R3-47 was used the negative isotype control.

Test [7] concerns the target T6, HMG1 B Box peptide amino acids 91-169.
T6 construct: also called HMG1 peptide 91-169
T6 peptide: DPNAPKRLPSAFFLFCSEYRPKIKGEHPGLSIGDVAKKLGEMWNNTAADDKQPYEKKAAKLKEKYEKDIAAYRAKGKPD
As to the kind of experiment: ELISA, wells coated with HMG1 B Box peptide 91-169 at 10 ug/ml. The procedure: as §1

Test [8] has as its target T7, HMG1 purified from bovine (calf) thymus (bovine, UniProt P10103 2-215).
T7 construct: also called Calf thymus HMGB1; thymus HMG1
T7 sequence (looked up): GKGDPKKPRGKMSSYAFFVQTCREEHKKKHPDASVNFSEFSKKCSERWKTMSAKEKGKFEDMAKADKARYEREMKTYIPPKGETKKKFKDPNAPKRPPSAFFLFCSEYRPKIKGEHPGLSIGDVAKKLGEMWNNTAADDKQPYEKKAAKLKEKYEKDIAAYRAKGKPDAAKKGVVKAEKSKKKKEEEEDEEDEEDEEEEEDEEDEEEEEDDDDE
As to the kind of experiment: ELISA, wells coated with calf thymus HMGB1 at 5 ug/mL, antibody at 10 ug/mL, anti-human kappa/lambda-HRP, OD 490. On the procedure:
Binding to HMG1 vs. HMG2: Ultra high-binding ELISA plates (ThermoLab systems, #3855) were coated with either 5 ug/mL of Calf thymus HMGB1 or HMBG2 diluted in 10 mM Phosphate buffered saline (PBS), pH 7.2 and incubate overnight at 4 degrees. The plates were washed twice with Ca and Mg free PBS and 100 microliters of anti-HMGB1 antibody diluted in 10 mM PBS, pH 7.2+1% bovine serum albumin (BSA) to a final concentration of 10 ug/mL was added to each well and the plates were incubated 1 hour at room temperature. The wells were washed three times with 100 μl of PBS, pH 7.2. HRP labeled goat-anti-human IgG Kappa-chain (KPL, #14-10-10) and goat-anti-human IgG Lambda-chain (KPL, #14-10-11) were diluted in 10 mM PBS+1% BSA 1:1000 and 100 μl were added to each well and incubated for 1 hour at room temperature. The wells were then washed three times with 100 μl of PBS, pH 7.2. OPD substrate (Pierce chemical company, #34006) was prepared following the manufacturers instructions and 100 μl of prepared substrate was added to each well and the plates incubated at room temperature in the dark for 20-30 minutes. The reaction was stopped with the addition of 100 μl of 2M H₂SO₄, and the plates read on a plate reader at a wavelength of 490 nm.

In test [9] the target is T6, HMG1 B Box peptide amino acids 91-169. As to the kind of experiment: ELISA, wells coated with HMG1 B Box peptide 91-169 at 10 ug/ml, anti-human IgG-HRP, OD 450. On the procedure: as §1
In test [10] the target is T4, HMG1 B Box peptide amino acids 150-183. As to the kind of experiment: ELISA, wells coated with HMG1 B Box peptide 150-183 at 10 ug/ml, anti-human IgG-HRP, OD 450. On the procedure: as §1
For test [11], the target named is T2, recombinant HMG1 purified from E. coli …. The test can be described thus: BIAcore, mAb immobilized, HMG1 injected, steady-state model. The procedure: HMG1 Binding Affinity via BIAcore Analysis: All experiments were performed on a BIAcore 3000 instrument (BIAcore, Inc., Piscataway, N.J.). Briefly, each mAb was immobilized to a CM5 sensor chip using a standard amino coupling chemistry. Separately a reference (control) flow cell was also prepared. Two-fold, serial dilutions of HMG1 in instrument buffer were sequentially injected at a slow flow rate over the individual mAb and reference flow-cell surfaces. Following the binding and dissociation of HMG1, the mAbs surfaces were regenerated with a brief pulse of 1M NaCl-50 mM NaOH. At the end of each experiment, the binding curves were evaluated using a steady-state model available through the BIA evaluation software supplied by BIAcore, Inc. (Piscataway, N.J.).
A general note: SPR reads the build-up and loss of mass on a sensor chip optically.

The target of test [12] is T8, HMGB1 in human brain tissue of multiple sclerosis plaques (human, UniProt P09429 1-215).
T8 construct: also called HMGB1 (MS plaques)
T8 sequence (looked up): T2 sequence
The test can be described thus: staining of human brain tissue.

This note sets out measurements from patent publication US20080311122A1 (AstraZeneca / MedImmune, published 2008).

Changes are numbered by the printed parent chain.

T1 sequence (Q62151 24-342): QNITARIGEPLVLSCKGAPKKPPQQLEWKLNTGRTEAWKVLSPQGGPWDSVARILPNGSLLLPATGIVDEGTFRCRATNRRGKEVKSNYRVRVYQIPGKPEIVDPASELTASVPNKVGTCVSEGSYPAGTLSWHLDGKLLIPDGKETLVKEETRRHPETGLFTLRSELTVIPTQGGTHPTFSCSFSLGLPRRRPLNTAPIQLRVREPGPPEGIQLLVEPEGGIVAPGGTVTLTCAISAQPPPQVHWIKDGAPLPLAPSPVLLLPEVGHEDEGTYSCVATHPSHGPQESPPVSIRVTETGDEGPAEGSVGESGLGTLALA

B1: HMGB1/CpG-A complex (other, bovine, UniProt P10103 2-215, looked up)
chain: T7 sequence (looked up)
notes: also called HMGB1/CpG complex; CpG/HMGB1 complex
With B1, in test [1], the “EC50 (read off the curve)” value is ~0.1 µM.

B2: anti-HMG1 antibody E11 (antibody, V domains shown)
VH: EVQLLESGGGLVQPGGSLRLSCAASGFTFSRYQMNWVRQAPGKGLEWVSSISPSGGHTHYADSVKGRFTISRDNSKNTLYLQMNSLRAEDTAVYYCAKDGRQGKISTVDHWGQGTLVTVSS
VL: DIQMTQSPGTLSLSPGERATLSCRASQSVRSNFLAWYQQKPGQAPRLLIYGASRRASGIPDRFSGSGFGADFTLSISRLEPEDFAVYYCQQYGSSPNTFGQGSRVEIK
For the molecule B2, in [2], the “IC50, inhibition of HMG1 stimulated NO release from macrophages” value came to 101 µg/mL. Besides, in test [2], the “IC50, inhibition of rHMG1 stimulated IL-6 release from human PBMC” value stood at 1.22 nM. In addition, in test [3], the “IC50, inhibition of native activated HMG1 stimulated IL-6 release from human PBMC” value came out at 1.73 nM. Besides, the 50% effective concentration (EC50 (read off the curve)) in test [4] was ~0.4 µg/mL. In addition, the binding result is “no binding (tested: 10 ug/ml (log 1.00))” in test [5], “no binding (tested: 10 ug/ml (log 1.00))” in test [7] and “binds” in test [8]. For the same molecule, in [6], the IC50 came out at 48.1 nM.

B3: anti-HMG1 antibody S12 (antibody, V domains shown)
VH: EVQLLESGGGLVQPGGSLRLSCAASGFTFSKYIMHWVRQAPGKGLEWVSGIVPSGGLTEYADSVKGRFTISRDNSKNTLYLQMNSLRAEDTATYYCAKEIFGQFDYWGQGTLVTVSS
VL: AQSALTQPPSVSAAPRQRVTISCSGSTSNIGNNAVTWYQYFPGKAPKLLIYSDNQRPSGVPDRFSGSKSGTSASLAITGLQAEDEADYYCQSYDRGLSVVFGGGTKLTVL
Regarding B3, the “IC50, inhibition of rHMG1 stimulated IL-6 release from human PBMC” value in [2] turned out to be 1.67 nM. The binding result in test [9], in test [10] and in test [8] was “binds” in each case.

B4: anti-HMG1 antibody G16 (antibody, V domains shown)
VH: EVQLLESGGGLVQPGGSLRLSCAASGFTFSWYKMTWVRQAPGKGLEWVSSISPSGGFTSYADSVKGRFTISRDNSKNTLYLQMNSLRAEDTAVYYCARDLDIRHAFDIWGQGTMVTVSS
VL: DIQMTQSPGTLSLSPGESGTLSCRASESVSSRHFAWYQQKPGQAPRLLIYGASSRPTGIPDRFSGSGSGTDFTLTLSRLEPEDFAVYFCQYYGSSPYTFGGGTKVEMK
Regarding B4, the “IC50, inhibition of HMG1 stimulated NO release from macrophages” value in test [2] amounted to 22 µg/mL. For the same molecule, the “IC50, inhibition of rHMG1 stimulated IL-6 release from human PBMC” value in test [2] amounted to 1.06 nM. The binding result in [5] is listed as “no binding (tested: 10 ug/ml (log 1.00))”; in test [7] it was “no binding (tested: 10 ug/ml (log 1.00))”; in [12], “binds”. For the same molecule, the Kd in test [11] was found to be 22 nM.

The EC50 (read off the curve) is the concentration giving half of the maximal effect. By IC50 is commonly meant the concentration at which inhibition is half-maximal. As a reminder, the Kd is the equilibrium constant for the complex coming apart.
